The values that follow come from patent publication US20230277624A1 (ONCOSEC MEDICAL, published 2023).

Assay [1] addresses T1, Recombinant mouse CTLA-4/human IgG1 chimera (R&D Systems) (mouse; human, UniProt P09793 36-162, limits assumed).
T1 construct: Bought reagent, immobilised in 96-well plates; also called recombinant mCTLA-4/Fc; recombinant CTLA4 protein; not shown: human IgG1 portion (Fc) of the bought chimera
Description: ELISA; mouse CTLA-4/human IgG1 chimera coated at 1 or 5 µg/mL, HEK293 conditioned medium (130 ng/mL), anti-mouse IgG-HRP, OD 450 nm. As to the method: (§1) Plasmid encoded anti-CTLA4 scFv bound to recombinant CTLA4 protein. Transfection-derived secreted anti-CTLA4 (scFv) were evaluated for their binding capacity to CTLA-4. Recombinant mouse CTLA-4/human IgG1 chimera (R&D Systems) were immobilized in 96-well plates (1 or 5 μg/mL, or […]) for 18 hr at room temperature. Wells were washed three times with 0.1% Tween in PBS and blocked with 1% BSA in PBS. Conditioned medium from HEK293 cells transfected with 9H10-scFv (168 ng/mL) or 9D9-scFv (130 ng/mL) was added to the wells, and incubated for 2 h at room temperature. Wells were washed three times, and anti-mouse IgG-horseradish peroxidase (Jackson ImmunoResearch, 0.2 μg/mL) were added and incubated for 1.5 hours at room temperature. Wells were again washed three times, developed with HRP Substrate Reagent (R&D Systems) and stopped with Stop Solution, 2N sulfuric acid (R&D Systems). Optical density of each well was measured at 450 nm.

The target of assay [2] is T1, Recombinant mouse CTLA-4/human IgG1 …. Nature of the assay: ELISA; mouse CTLA-4/human IgG1 chimera coated at 1 or 5 µg/mL, HEK293 conditioned medium (168 ng/mL), anti-mouse IgG-HRP, OD 450 nm. Here is the method:
as §1
In general terms: An ELISA detects its analyte on a solid surface through an enzyme-linked reagent.

B1: Igκ-HA-9D9 VLC-Linker-9D9 VHC-Linker-mIgG1 Fc domain (anti-CTLA-4 scFv) (Fc fusion)
scFv: YPYDVPDYAGAQPARSDIVMTQTTLSLPVSLGDQASISCRSSQSIVHSNGNTYLEWYLQKPGQSPKLLIYKVSNRFSGVPDRFSGSGSGTDFTLKISRVEAEDLGVYYCFQGSHVPYTFGGGTKLEIKRADAAPTVSGSGGGSGGGSGGGSEAKLQESGPVLVKPGASVKMSCKASGYTFTDYYMNWVKQSHGKSLEWIGVINPYNGDTSYNQKFKGKATLTVDKSSSTAYMELNSLTSEDSAVYYCARYYGSWFAYWGQGTLITVSTAKTTPPSVYPLAPVDSSGSGGCKPCICTVPEVSSVFIFPPKPKDVLTITLTPKVTCVVVDISKDDPEVQFSWFVDDVEVHTAQTQPREEQFNSTFRSVSELPIMHQDWLNGKEFKCRVNSAAFPAPIEKTISKTKGRPKAPQVYTIPPPKEQMAKDKVSLTCMITDFFPEDITVEWQWNGQPAENYKNTQPIMDTDGSYFVYSKLNVQKSNWEAGNTFTCSVLHEGLHNHHTEKSLSHSPGK
notes: Secreted into the conditioned medium of transfected HEK293 cells (130 ng/mL) and used as such; also called 9D9-scFv; plasmid encoded anti-CTLA4 scFv
Take B1: the binding result in assay [1] is reported as “binds”.

B2: Igκ-HA-9H10 VLC-Linker-9H10 VHC-Linker-mIgG1 Fc domain (anti-CTLA-4 scFv) (Fc fusion)
scFv: YPYDVPDYAGAQPARSDIVMTQSPSSLAVSVGEKVTISCKSSQSLLYGSSHYLAWYQQKVGQSPKLLIYWASTRHTGIPDRFIGSGSGTDFTLSLSSVQAEDMADYFCQQYFSTPWTFGAGTRVEIKSGSGGGSGGGSGGGSQVQLLQSESELVKPGASVKLSCKTSGYTFTDYYIHWVKQKPGQGLEWIGLINPNNDGTNYNQKFQGKATLTADKSSSTAYMELNSLTFDDSVIYFCARASSRLRMARTTSDYYAMDYWGQGIQVTVSSVDSSGSGGCKPCICTVPEVSSVFIFPPKPKDVLTITLTPKVTCVVVDISKDDPEVQFSWFVDDVEVHTAQTQPREEQFNSTFRSVSELPIMHQDWLNGKEFKCRVNSAAFPAPIEKTISKTKGRPKAPQVYTIPPPKEQMAKDKVSLTCMITDFFPEDITVEWQWNGQPAENYKNTQPIMDTDGSYFVYSKLNVQKSNWEAGNTFTCSVLHEGLHNHHTEKSLSHSPGK
notes: Secreted into the conditioned medium of transfected HEK293 cells (168 ng/mL) and used as such; also called 9H10-scFv; plasmid encoded anti-CTLA4 scFv
With B2, the binding result in assay [2] is reported as “binds”.
